Assay [1] deals with Norovirus surrogate virus-like particle, type GII.4 Minerva strain (human Norovirus GII.4 Minerva strain). The assay can be described thus: SPR, unpurified peptide against nVLP GII.4.
Assay [2] shares this target. The assay can be described thus: direct ELISA on purified GII.4 nVLP.
Assay [3] addresses GII.4 Sydney# Norovirus VLP (Norovirus GII.4 Sydney strain). The assay can be described thus: capture of VLP from a dilute solution by the synbody.
Assay [4] addresses Norovirus surrogate virus-like particle, type GII.4 Minerva strain (human Norovirus GII.4 Minerva strain). Described as above.

Where no end group is shown, it is not given here. scaffold 1571 = not defined here

B1: Mut Peptide-81 (peptide)
peptide: AWARSNNSRSKAFNLGWGSC
One may read the koff as the first-order rate constant of dissociation. In assay [1], B1 showed a % Stability of 45%, an Avg Binding (Spot 1/2) of 128 and a koff of 0.00455 s⁻¹.

B2: nVLP81-81-1571 (designed binder)
peptide: AWARSNNSRSKAFNLGWGSC(scaffold 1571)
modifications: reading uncertain; also: two peptides coupled by Cys to scaffold 1571 (dimer)
What is called Kd is the free concentration of one partner at which half of the binding sites on the other are occupied at equilibrium, for simple one-to-one binding. A high value points to weaker binding. For the molecule B2, the Kd in assay [2] came out at 3 nM.

B3: nVLP94-94-1571 (designed binder)
peptide: RWVRVKLRSHTKLNRYIGSC(scaffold 1571)
modifications: reading uncertain; also: two peptides coupled by Cys to scaffold 1571 (dimer)
Turning to B3, the Enrichment Factor from 1 ng/µL solution in assay [3] was 3; in assay [4] it was 7. Moreover, the Kd in assay [2] was determined as 1 nM.

B4: nVLP53-53-1571 (designed binder)
peptide: VWARKNNKRKKDFNAGWGSC(scaffold 1571)
modifications: reading uncertain; also: two peptides coupled by Cys to scaffold 1571 (dimer)
With B4, in assay [2], the Kd is 1 nM.

B5: nVLP78-78-1571 (designed binder)
peptide: SWARSNNKRSKAFNLGWGSC(scaffold 1571)
modifications: reading uncertain; also: two peptides coupled by Cys to scaffold 1571 (dimer)
As for B5, the Kd in assay [2] came out at 5 nM.

B6: nVLP92-92-1571 (designed binder)
peptide: RWHRVKLRSHTELNRYIGSC(scaffold 1571)
modifications: reading uncertain; also: two peptides coupled by Cys to scaffold 1571 (dimer)
In the case of B6, the Enrichment Factor from 1 ng/µL solution in assay [4] is 3. Besides, the Kd in assay [2] amounted to 3 nM.

B7: Mut Peptide-53 (peptide)
peptide: VWARKNNKRKKDFNAGWGSC
Regarding B7, in assay [1], the % Stability turned out to be 51%, the Avg Binding (Spot 1/2) amounted to 189 and the koff came out at 0.00408 s⁻¹.

B8: Mut Peptide-78 (peptide)
peptide: SWARSNNKRSKAFNLGWGSC
In assay [1], B8 came in with a % Stability of 46%, an Avg Binding (Spot 1/2) of 169 and a koff of 0.00431 s⁻¹.

B9: nVLP55-55-1571 (designed binder)
peptide: VWARKNNSRSKDFNAGWGSC(scaffold 1571)
modifications: reading uncertain; also: two peptides coupled by Cys to scaffold 1571 (dimer)
In assay [2], B9 yielded a Kd of 9 nM.

B10: nVLP93-93-1571 (designed binder)
peptide: RWVRVKLRSHTELNRYIGSC(scaffold 1571)
modifications: reading uncertain; also: two peptides coupled by Cys to scaffold 1571 (dimer)
For B10, the values for the Enrichment Factor from 1 ng/µL solution in assay [3] and in assay [4] were 3 and 10, respectively. In assay [2], this molecule had a Kd of 4 nM.

B11: Mut Peptide-60 (peptide)
peptide: DWARKNNKRKMNFNLGWGSC
Turning to B11, in assay [1], the % Stability was found to be 44%, the Avg Binding (Spot 1/2) was 134 and the koff was 0.00487 s⁻¹.

B12: Mut Peptide-94 (peptide)
peptide: RWVRVKLRSHTKLNRYIGSC
In assay [1], B12 showed a % Stability of 63%, an Avg Binding (Spot 1/2) of 358 and a koff of 0.00294 s⁻¹.

B13: Mut Peptide-93 (peptide)
peptide: RWVRVKLRSHTELNRYIGSC
As to B13, in assay [1], the % Stability was 60%, the Avg Binding (Spot 1/2) turned out to be 274 and the koff is 0.00332 s⁻¹.

B14: nVLP60-60-1571 (designed binder)
peptide: DWARKNNKRKMNFNLGWGSC(scaffold 1571)
modifications: reading uncertain; also: two peptides coupled by Cys to scaffold 1571 (dimer)
Consider B14, for which the Kd in assay [2] was 2 nM.

B15: Mut Peptide-92 (peptide)
peptide: RWHRVKLRSHTELNRYIGSC
Turning to B15, in assay [1], the % Stability is 57%, the Avg Binding (Spot 1/2) stood at 230 and the dissociation rate constant (koff) came out at 0.00355 s⁻¹.

These data come from US9766239.
